# Test results reported in the supplement of paper PMC10567573.
# B1: ZNF207 (parent)
# chain: FPSAGQAQAAVQGPVGTDFKPLNS
# Variants of: B1
# Experiment: protein stability index of a GFP-peptide fusion (GPS, HEK-293T) (PSI 1-6); higher = more stable
# Conditions: c terminus: a fixed tail appended
# 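Note: lentivirally expressed fusions sorted by FACS into six bins by GFP to DsRed ratio, PSI derived from sequencing read proportions per bin multiplied by bin number.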
row,Variant,protein stability index
1,FPSAGQAQAAVNGPVGTDFKPLNS,3.41
2,FPSAGQAQAAVTGPVGTDFKPLNS,3.61
3,FPSAGQAQAAVHGPVGTDFKPLNS,3.18
4,FPSAGQAQAAVPGPVGTDFKPLNS,3.88
5,FPSAGQAQAAVKGPVGTDFKPLNS,3.38
6,FPSAGQAQAAVYGPVGTDFKPLNS,2.46
7,FPSAGQAQAAVMGPVGTDFKPLNS,2.83
8,FPSAGQAQAAVVGPVGTDFKPLNS,3.36
9,FPSAGQAQAAVFGPVGTDFKPLNS,2.28
10,FPSAGQAQAAVGGPVGTDFKPLNS,3.37
11,FPSAGQAQAAVSGPVGTDFKPLNS,3.36
12,FPSAGQAQAAVRGPVGTDFKPLNS,3.1
13,FPSAGQAQAAVAGPVGTDFKPLNS,3.13
14,FPSAGQAQAAVCGPVGTDFKPLNS,3.51
15,FPSAGQAQAAVLGPVGTDFKPLNS,2.67
16,FPSAGQAQAAVIGPVGTDFKPLNS,2.54
17,FPSAGQAQAAVDGPVGTDFKPLNS,3.69
18,FPSAGQAQAAVEGPVGTDFKPLNS,3.18
19,FPSQGQAQAAVQGPVGTDFKPLNS,3.77
20,FPSNGQAQAAVQGPVGTDFKPLNS,4.08
21,FPSLGQAQAAVQGPVGTDFKPLNS,4.25
22,FPSRGQAQAAVQGPVGTDFKPLNS,3.87
23,FPSWGQAQAAVQGPVGTDFKPLNS,2.62
24,FPSVGQAQAAVQGPVGTDFKPLNS,3.9

row,Variant,protein stability index
1,FPSIGQAQAAVQGPVGTDFKPLNS,4.41
2,FPSPGQAQAAVQGPVGTDFKPLNS,4.16
3,FPSMGQAQAAVQGPVGTDFKPLNS,3.8
4,FPSHGQAQAAVQGPVGTDFKPLNS,3.71
5,FPSEGQAQAAVQGPVGTDFKPLNS,4.58
6,FPSCGQAQAAVQGPVGTDFKPLNS,2.52
7,FPSKGQAQAAVQGPVGTDFKPLNS,3.71
8,FPSSGQAQAAVQGPVGTDFKPLNS,3.27
9,FPSDGQAQAAVQGPVGTDFKPLNS,4.68
10,FPSYGQAQAAVQGPVGTDFKPLNS,3.51
11,FPSFGQAQAAVQGPVGTDFKPLNS,3.82
12,FPSTGQAQAAVQGPVGTDFKPLNS,4.39
13,FPSGGQAQAAVQGPVGTDFKPLNS,2.98
14,FPSAGQAQAAWQGPVGTDFKPLNS,2.38
15,FPSAGQAQAAAQGPVGTDFKPLNS,3.73
16,FPSAGQAQAAFQGPVGTDFKPLNS,2.58
17,FPSAGQAQAAEQGPVGTDFKPLNS,3.84
18,FPSAGQAQAARQGPVGTDFKPLNS,4.12
19,FPSAGQAQAALQGPVGTDFKPLNS,3.07
20,FPSAGQAQAAHQGPVGTDFKPLNS,3.74
21,FPSAGQAQAAMQGPVGTDFKPLNS,3.36
22,FPSAGQAQAAYQGPVGTDFKPLNS,3
23,FPSAGQAQAAQQGPVGTDFKPLNS,3.72
24,FPSAGQAQAACQGPVGTDFKPLNS,3.1

row,Variant,protein stability index
1,FPSAGQAQAATQGPVGTDFKPLNS,3.58
2,FPSAGQAQAANQGPVGTDFKPLNS,3.32
3,FPSAGQAQAAGQGPVGTDFKPLNS,3.72
4,FPSAGQAQAAIQGPVGTDFKPLNS,3.25
5,FPSAGQAQAASQGPVGTDFKPLNS,4.27
6,FPSAGQAQAAKQGPVGTDFKPLNS,3.45
7,FPSAGQAQAADQGPVGTDFKPLNS,3.68
8,FPSAGQAQAAPQGPVGTDFKPLNS,3.62
9,FPSAGGAQAAVQGPVGTDFKPLNS,3.65
10,FPSAGCAQAAVQGPVGTDFKPLNS,2.42
11,FPSAGSAQAAVQGPVGTDFKPLNS,3.65
12,FPSAGWAQAAVQGPVGTDFKPLNS,1.47
13,FPSAGFAQAAVQGPVGTDFKPLNS,2.5
14,FPSAGKAQAAVQGPVGTDFKPLNS,2.76
15,FPSAGYAQAAVQGPVGTDFKPLNS,1.94
16,FPSAGMAQAAVQGPVGTDFKPLNS,2.8
17,FPSAGTAQAAVQGPVGTDFKPLNS,3.96
18,FPSAGLAQAAVQGPVGTDFKPLNS,2.81
19,FPSAGRAQAAVQGPVGTDFKPLNS,3.01
20,FPSAGNAQAAVQGPVGTDFKPLNS,3.62
21,FPSAGIAQAAVQGPVGTDFKPLNS,2.72
22,FPSAGAAQAAVQGPVGTDFKPLNS,3.72
23,FPSAGHAQAAVQGPVGTDFKPLNS,3.58
24,FPSAGDAQAAVQGPVGTDFKPLNS,4.37

row,Variant,protein stability index
1,FPSAGPAQAAVQGPVGTDFKPLNS,4.23
2,FPSAGVAQAAVQGPVGTDFKPLNS,3.41
3,FPSAGEAQAAVQGPVGTDFKPLNS,4.16
4,FPSAGQDQAAVQGPVGTDFKPLNS,3.98
5,FPSAGQCQAAVQGPVGTDFKPLNS,2.47
6,FPSAGQSQAAVQGPVGTDFKPLNS,3.87
7,FPSAGQTQAAVQGPVGTDFKPLNS,3.49
8,FPSAGQPQAAVQGPVGTDFKPLNS,3.51
9,FPSAGQFQAAVQGPVGTDFKPLNS,2.17
10,FPSAGQIQAAVQGPVGTDFKPLNS,3.15
11,FPSAGQVQAAVQGPVGTDFKPLNS,3.36
12,FPSAGQGQAAVQGPVGTDFKPLNS,3.58
13,FPSAGQKQAAVQGPVGTDFKPLNS,3.49
14,FPSAGQRQAAVQGPVGTDFKPLNS,3.26
15,FPSAGQMQAAVQGPVGTDFKPLNS,2.93
16,FPSAGQEQAAVQGPVGTDFKPLNS,3.94
17,FPSAGQNQAAVQGPVGTDFKPLNS,3.94
18,FPSAGQLQAAVQGPVGTDFKPLNS,2.27
19,FPSAGQQQAAVQGPVGTDFKPLNS,3.5
20,FPSAGQWQAAVQGPVGTDFKPLNS,2.44
21,FPSAGQHQAAVQGPVGTDFKPLNS,3.55
22,FPSAGQYQAAVQGPVGTDFKPLNS,1.65
